What was measured:
[1] = target: T1, Citrate Synthase (CS), Roche Diagnostics (UniProt P00889 28-464); experiment: cell-based or functional assay
T1 sequence (looked up): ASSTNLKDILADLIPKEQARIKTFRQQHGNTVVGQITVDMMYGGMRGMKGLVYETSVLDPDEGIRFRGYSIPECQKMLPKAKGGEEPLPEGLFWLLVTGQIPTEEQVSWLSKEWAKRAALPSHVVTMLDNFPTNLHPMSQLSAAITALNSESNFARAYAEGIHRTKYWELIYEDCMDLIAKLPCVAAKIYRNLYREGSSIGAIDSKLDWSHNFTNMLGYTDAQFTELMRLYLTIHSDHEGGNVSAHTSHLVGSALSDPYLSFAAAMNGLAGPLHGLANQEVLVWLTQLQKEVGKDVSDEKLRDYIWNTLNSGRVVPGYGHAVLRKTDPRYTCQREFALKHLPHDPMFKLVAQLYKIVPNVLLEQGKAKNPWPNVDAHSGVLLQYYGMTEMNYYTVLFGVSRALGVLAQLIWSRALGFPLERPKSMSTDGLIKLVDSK

[2] = target: Horseradish Peroxidase (HRP), Sigma (horseradish) (UniProt P00433); experiment: cell-based or functional assay
[3] = target: alpha-amylase (Sigma, A 6380); experiment: cell-based or functional assay
[4] = target: superoxide dismutase (SOD), cosmetic grade ('dismutin', Pentapharm Ltd.); experiment: cell-based or functional assay
[5] = target: T2, Horseradish Peroxidase (HRP), Sigma (horseradish, UniProt P00433 31-338); experiment: cell-based or functional assay
T2 sequence (looked up): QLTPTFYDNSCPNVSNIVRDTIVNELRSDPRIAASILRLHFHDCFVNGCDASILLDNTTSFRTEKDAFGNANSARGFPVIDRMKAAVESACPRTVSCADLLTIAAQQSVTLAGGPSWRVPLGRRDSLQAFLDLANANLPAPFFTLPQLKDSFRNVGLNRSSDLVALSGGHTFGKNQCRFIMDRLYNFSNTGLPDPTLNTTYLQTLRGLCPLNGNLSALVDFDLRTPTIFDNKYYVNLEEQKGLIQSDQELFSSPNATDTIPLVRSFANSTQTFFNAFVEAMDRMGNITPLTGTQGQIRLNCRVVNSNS

[6] = target: the molecule itself; experiment: SDS-tricine PAGE; self-association of SP1 monomers

recombinant CBD-SP1 fusion protein (32.4 kDa monomer) expressed in E. coli from pET-CBD-180-SP1
remaining CS enzymatic activity at 43° C. after 40 minutes, CS:CBD-SP1 monomeric molar ratio of 1:20 [1]: 73% | remaining CS enzymatic activity at 43° C. after 40 minutes, CS:CBD-SP1 ratio of 1:5 [1]: 33%

B1: native SP1 protein purified from aspen plants (116 kDa oligomer / 12.4 kDa monomer) (other)
chain: MATRTPKLVKHTLLTRFKDEITREQIDNYINDYTNLLDLIPSMKSFNWGTDLGMESAELNRGYTHAFESTFESKSGLQEYLDSAALAAFAEGFLPTLSQRLVIDYFLY
notes: Homo-oligomer; On Western blots the protein was separated by SDS-PAGE first; also called purified SP1; plant SP1 protein
HRP activity rescued after room temperature inactivation [2]: 10% | alpha-amylase activity after 2 hours in 2 M CaCl2 [3]: 50% | increase in alpha-amylase activity 2 hours after SP1 addition [3]: 60% | remaining alpha-amylase activity after one-week incubation at room temperature [3]: > 40% | SOD activity compared to SP1 untreated SOD [4]: 60% | protection of CS activity against heat inactivation at 43° C., CS:SP1 ratio of 1:5, 40 minutes [1]: 22% | remaining CS enzymatic activity at 43° C., CS:SP1 ratio of 1:50, 15 minutes [1]: ~100% | remaining CS enzymatic activity at 43° C., CS:SP1 ratio of 1:50, 40 minutes [1]: ≥ 93% | protection of HRP activity at 55° C. compared with BSA at 1:300 [5]: ~3 fold | protection of HRP activity at 55° C., HRP:SP1 molar ratio of 1:300, 60 minutes [5]: > 60% | remaining HRP activity at 55° C., HRP:SP1 molar ratio of 1:300, 2 hours [5]: 53% | binding result [6]: binds

Reference: US20030092624A1 (YISSUM RESEARCH DEVELOPMENT COMPANY OF THE HEBREW …, published 2003)
